Measurements: US20260069536A1, “COMPOSITIONS, SYSTEMS, AND METHODS FOR DELIVERY OF THERAPEUTICS” (THE JOHNS HOPKINS UNIVERSITY, priority 2022, published 2026)
Square brackets hold non-standard residues; d marks the D form. Ends that are not written are not given here. Nva = CCC[C@H](N)C(=O)O

Experiments:
[1] = test system: full MHC mismatch (C57BL/6 to BALB/c) mouse heart transplantation model; test: Mouse heart transplantation model, systemic Tofa with CTLA4-Ig; format: in vivo
[2] = test system: dendritic cells; test: Maturation of dendritic cells under Tofa; format: cell-based
[3] = test system: Treg; test: Suppressive activity of Treg under Tofa; format: cell-based
[4] = test system: mouse heart transplant model; test: Mouse heart transplant model, localized Tofa hydrogel with CTLA4-Ig; format: in vivo; conditions: localized release around the transplanted heart, single administration
From the text: FIG. 3A is a schematic of localized delivery of Tofacitinib (Tofa) microcrystals from a hydrogel (MTH) implanted in mice receiving heterotopic heart transplant. FIG. 3B is survival curves of C57Bl/6 mice receiving BALB/c heart transplants under the indicated treatments.
A peptide hydrogel (MAX8) that self-assembles at physiological conditions and encapsulated crystalline Tofa (cJAKi-Hydro) was used to assess that the localized release of a JAKi (Tofa) around the transplanted heart would have synergism with CTLA4-Ig as systemic Tofa administration (FIG. 3A).

[5] = Release of Ani2-NLCs from peptide gels in the absence of enzyme; format: physicochemical
Method: (§1) Preliminary experiments were conducted on the proteolytic stability of the peptides and the impact on the release of the encapsulated NLCs. To investigate protease-mediated release, comparative release rates of Ani2-NLCs were studied with respect to nVET2 and IVET1 gels in trypsin-rich and MMP12-rich environments. Ani2-NLCs are retained within the gels over extended periods of time due to their negative zeta potential that allows them to bind to the positively charged gel network.
(§2) Upon trypsinization, both IVET1 and nVET2 gels show faster release rates of Ani2-NLCs than those observed in the absence of the protease. […] These relative release trends of IVET1 and nVET2 gels are somewhat consistent with the degradation of the individual peptides by trypsin and MMP12. Trypsin hydrolyzes proteins at the carboxyl side of lysine and arginine amino acid residues and as such, the peptides IVET1 and nVET2 contain six cleavable sites with respect to trypsin. On the other hand, MMP12 recognizes a single cleavage site (PLG↓VR) within each of the peptide sequences. Thus, the observed rate of release of the NLCs is proportional to the number of protease-specific cleavage sites within the peptide sequence
At the end of 10 days, less than 20% of Ani2-NLCs were released in the absence of enzyme. Thus, two distinct release regimes of tofacitinib are attainable with simultaneous incorporation of the drug as microcrystalline deposits and as Tofa-NLCs.

[6] = Release of microcrystalline tofacitinib from peptide gels (UV-Vis); format: physicochemical; conditions: 32 mM microcrystalline deposits, after 10 days
Method: The release rates of microcrystalline tofacitinib from select peptide gels (MAX8 and HLT2) was determined as in Majumder, P., et al., Small 2020, 16, 2002791, incorporated herein by reference (FIG. 18A). As such, the release rates were established for the enzyme cleavable peptides (nVET1 and IVET1) at two different drug loads—16 mM and 32 mM. The release of tofacitinib was quantified using UV-Vis spectroscopy (λ=285 nm). […] The release profile is thus dependent on the final concentration of drug loaded and consistent with crystal dissolution being rate-determining.

[7] = test system: trypsin; test: Protease-mediated release of NLC from peptide gels, trypsin; format: physicochemical; conditions: first 24 hours; for increase in release rate upon trypsinization: relative to absence of protease; for Ani2-NLCs released: with trypsin
Method: FIGS. 10A and 10B show protease responsive LNp release. […] FIG. 10B is a graph of the release profiles of Ani2-NLC from Peptide-4 gels in response to trypsin.
IVET2—SEQ ID NO: 7; IVET1—SEQ ID NO: 8; nVET2—SEQ ID NO: 9; nVET1—SEQ ID NO: 10.
as §1, §2

[8] = target: T1, MMP12 (Homo sapiens, UniProt P39900); test: Protease-mediated release of NLC from peptide gels, MMP12; format: physicochemical; conditions: MMP12 treated gels
Method: as §1, §2

[9] = target: T1, MMP12; test: Rheology of MMP12-treated peptide gels; format: physicochemical; conditions: 150 ul, 1 wt % gels, 37° C., MMP12, 1×HBS pH 7.4, 12 days
Method: To provide further insight into the mechanistic effects of the gel release rates described above, the rheological properties of the MMP12-treated peptide gels were investigated. For this study, pre-formed IVET1 gels (150 ul, 1 wt %) were incubated at 37° C. with MMP12 (1×HBS, pH 7.4) and the storage modulus at 6.3 rad/s (obtained from frequency sweep measurements) was plotted at different time points for each gel. […] Despite peptide cleavage, the gels remained intact due to the stable cross-linked fiber network supported by the inter-hairpin hydrophobic contacts of the peptides upon self-assembly.

[10] = Gel stiffness (storage modulus G′) after NLC encapsulation; format: physicochemical; conditions: following encapsulation of neutral or negatively-charged NLCs
From the text: FIGS. 6A-6C show LNp encapsulation in a hydrogel. FIG. 6A is a graph of the comparative storage moduli (G′) of MAX8 gels with and without Neut-NLCs and Ani2-NLCs. FIG. 6B is a graph of the cumulative release profiles of Neut-NLC and Ani2-NLC from MAX8 gels. FIG. 6C is an image of LNp retention by MAX8 gels. A lipophilic dye (pink) was encapsulated within the NLCs to quantify release after 5 days.
To improve particle retention within the gel, the nanoparticles were modified to achieve a slightly negative surface charge (the hydrogel network is positively charged) by adding a small percentage of anionic surfactant (Glycolic Acid Ethoxylate Oleyl Ether) together with the Gelucire 44/14. Two different ratios of these surfactants were used until similarly sized nanoparticles were achieved.

[11] = Hydrogel toxicity after SQ injection in skin flap; conditions: SQ injection after flap raise, visual monitoring
Method: To this end, the condition of transplants was replicated by surgically separating the skin of the prospective area of injection (flap raise) followed by suturing the edges. After completion of the surgical procedure, empty hydrogel or Tofa containing hydrogel was injected SQ and the area monitored visually for any macroscopic sign of toxicity.

[12] = absence of enzyme, end of 10 days
[13] = absence of trypsin (control gel), first 24 hours

T1 sequence (P39900 106-470, species assumed): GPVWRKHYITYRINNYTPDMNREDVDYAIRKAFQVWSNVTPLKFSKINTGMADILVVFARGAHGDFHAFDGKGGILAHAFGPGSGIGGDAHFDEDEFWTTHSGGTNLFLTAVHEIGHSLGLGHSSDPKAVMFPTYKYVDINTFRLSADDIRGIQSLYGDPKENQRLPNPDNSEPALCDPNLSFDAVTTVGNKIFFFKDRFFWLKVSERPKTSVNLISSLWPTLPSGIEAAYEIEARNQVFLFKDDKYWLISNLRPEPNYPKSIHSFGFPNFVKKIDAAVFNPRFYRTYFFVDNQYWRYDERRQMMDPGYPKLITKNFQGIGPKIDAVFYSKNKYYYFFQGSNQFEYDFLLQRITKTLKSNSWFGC

Row | Compound | Ani2-NLCs released [5, 12] | drug release [6] | increase in release rate upon trypsinization [7] | Ani2-NLCs released [7] | release rate of Ani2-NLCs [8] | Ani2-NLCs released [5, 13] | also measured
1 | C[C@@H]1CCN(C(=O)CC#N)C[C@@H]1N(C)c1ncnc2[nH]ccc12 [Tofa, 3-((3R,4R)-4-methyl-3-(methyl(7H-pyrrolo[2,3-d]pyrimidin-4-yl)amino)piperidin-1-yl)-3-oxopropanenitrile] |  |  |  |  |  |  | differentiation of TH1 effector T cells ([1]; Tofa+CTLA4-Ig): inhibition of the differentiation of TH1 effector T cells; regulatory T cells (Treg) ([1]; Tofa+CTLA4-Ig): accumulation of a high frequency of regulatory T cells; graft survival with ischemic hearts ([1]; Tofa+CTLA4-Ig, hearts kept ischemic for 4h before transplantation): improvement in survival was unaffected; graft survival ([1]; combination with CTLA4-Ig, Tofa POD-1 to POD6, twice daily via oral gavage): promoted long-term graft survival; up-regulation of MHC-II molecules ([2]; dendritic cells): did not prevent the up-regulation of MHC-II molecules; maturation of dendritic cells ([2]; upregulation of costimulatory molecules and secretion of pro-inflammatory cytokines): very effective at preventing the maturation of dendritic cells; suppressive activity of Treg [3]: only minimally affected the suppressive activity of Treg; graft survival [4]: as effective at synergizing with systemic CTLA4-Ig as 16 oral gavage administrations
2 | (nV)K(nV)E(nV)KVKV^DPPLGVRTK(nV)K(nV) ([Nva]K[Nva]E[Nva]KVKVPPLGVRTK[Nva]K[Nva]; also: P10 written ^DP (meaning not given here)) [nVET1] | less than 20% | less than 60% |  |  |  |  | 
3 | (nV)KTE(nV)KVKV^DPPLGVRTK(nV)K(nV) ([Nva]KTE[Nva]KVKVPPLGVRTK[Nva]K[Nva]; also: P10 written ^DP (meaning not given here)) [nVET2] |  |  | 3 fold | 30% | intermediate between their respective trypsin-rich and protease-free gel environments | 10% | 
4 | IKVEIKVKV^DPPLGVRTKIKV (IKVEIKVKVPPLGVRTKIKV; also: P10 written ^DP (meaning not given here)) [IVET1] | less than 20% | less than 60% | ~12 fold | 17.4% | intermediate between their respective trypsin-rich and protease-free gel environments | 1.5% | storage modulus at 6.3 rad/s [9]: relatively stable storage modulus
5 | VKVKVKVKV^DPPTKVEVKVKV (VKVKVKVKVPPTKVEVKVKV; not fully specified (residue 10)) [MAX8] |  |  |  |  |  |  | gel stiffness [10]: stiffness is maintained; macroscopic sign of toxicity [11]: absence of any evidence of toxicity
